For experiment [1], the target named is recombinant human TYRP1 (tyrosinase-related protein-1) (human) (UniProt P17643). As to the kind of experiment: SPR (Biacore), TYRP1 immobilized; summary table. A general note: In SPR one partner is held on a chip, and binding of the other changes the refractive index at the surface.
Experiment [2] shares this target. As to the kind of experiment: ELISA, plate coated with recombinant human TYRP1, antibody titrated. (An ELISA detects its analyte on a solid surface through an enzyme-linked reagent.)
Experiment [3] has the same target. Nature of the experiment: SPR (Biacore), TYRP1 immobilized on CM5 chip, antibody injected, 20-25 °C.
Experiment [4] shares this target. Nature of the experiment: ELISA on plate-coated recombinant human TYRP1 (column headed 'Competition ELISA'); summary table.
Experiment [5] has as its target native human TYRP1 expressed on human melanoma cell lines (624mel, SKmel28, SKmel23) (human, UniProt P17643 25-537). As to the kind of experiment: cell-based or functional assay.

As a reminder, the Kd is the concentration at which binding is half-saturated. Broadly, the EC50 is the concentration giving half of the maximal effect. A word on the koff: it is the rate constant with which the complex falls apart. As a reminder, the kon is the second-order rate constant of association.

On to “TA99, murine monoclonal antibody (IgG2a) specific for human and murine TYRP1”, for which the Kd in experiment [1] and in experiment [3] was 1.7 nM throughout. The EC50 in experiment [2] and in experiment [4] was 0.4 nM throughout. Also, the off-rate constant (koff) in experiment [3] was 0.00016 s⁻¹. For the same molecule, in experiment [3], the kon was 95000 M⁻¹ s⁻¹.

B1: CTA99, chimeric antibody with a human constant region IgG1 (antibody, V domains shown)
VH: EVQLQQSGAELVRPGALVKLSCKTSGFNIKDYFLHWVRQRPDQGLEWIGWINPDNGNTVYDPKFQGTASLTADTSSNTVYLQLSGLTSEDTAVYFCTRRDYTYEKAALDYWGQGASVIVFS
VL: AIQMSQSPASLSASVGETVTITCRASGNIYNYLAWYQQKQGKSPHLLVYDAKTLADGVPSRFSGSGSGTQYSLKISSLQTEDSGNYYCQHFWSLPFTFGSGTKLEIKR
In the case of B1, the “Human ADCC (%)” value in experiment [5] stood at 48%.

The record behind these values is patent publication US20090232823A1 (Eli Lilly, published 2009).
